Assay results from the nanobody polyreactivity screen of Harvey et al. (2022).

Test: yeast display, Sf9 membrane polyspecificity reagent, FACS + sequencing; frameworks hold sequencing errors
Procedure, shortened: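 Using colony PCR, genes from sorted yeast display clones were amplified, then sequenced on MiSeq at 2 × 250 and filtered by CDR length. The clones had been stained with 10% biotinylated, detergent-solubilized Sf9 membrane reagent for 1 hour at 4 °C and sorted by FACS into low and high (top ~1%) gates on anti-HA and streptavidin fluorescence. Polyreactivity labels come from the gate of origin.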

Sequence	polyreactivity (PSR sort gate)
QVQLVESGGGLVQAGGSLRLSCAASGFTFTYYAMGWYRQAPGKERELVAAISRNGGDTYYADSGKGRFTISRDNAKNTVYLQMNSLKPEDSAVYYCNARTPTDSTHFDYWGQGTQVTVSS	low polyreactivity
QVQLVESGGGLVQAGGSLRLSCAASGFTFTYYAMGWYRQAPGNERELVAAISSGGNTYYADSVKGRFTISRDNAKNTVYLQMNSLKPEDTAVYYCAAQYSKRAWSWTYAYSYFRFDYWGQGTQVTVSS	low polyreactivity
QVQLVESGGGLVQAGGSLRLSCAASGFTFTYYTMGWYRQAPGKARELVAAISWSGGSTYYADSVKGRLTISRDNANNPVYLQMNSLKPEDTEVYYCNKVGIGYNTKRDYWGQGTQVTVSS	high polyreactivity
QVQLVESGGGLVQAGGSLRLSCAASGFTFTYYTMGWYRQAPGKERELVAGISRSGGSTYYADSVKGRFTISRDNAKNTVYLQMNSLKPEDTAVYYCAAVVRSYSDRYDYWGQGTQVTVSS	high polyreactivity
QVQLVESGGGLVQAGGSLRLSCAASGFTFTYYTMGWYRQAPGKESELVAAISWSGGRTYYADSVKGRFTISRDNAKNTVYLQMNSLKPEDTAVYYCAAVYSSYYSSSYGYWGQGTQVTVSS	high polyreactivity
QVQLVESGGGLVQAGGSLRLSCAASGFTFVDNAMGWYRQPPRKERELVAAISWTGVGSTYYADSVKGRFTISRDNAKNTDYLQMNSLKPEDTAVYYCAADGLSRGVPDEFDYWGQGTQVTVSS	low polyreactivity
QVQLVESGGGLVQAGGSLRLSCAASGFTFVFYAIGWYRQAPGKARELVAAISSRGGSTYYADSVKGRFTISRDNAKNTVYLQMNSLKPEDTAVYYCNVVSPYWTTYEEYYWGQGTQVTVSS	high polyreactivity
QVQLVESGGGLVQAGGSLRLSCAASGFTFVKNVMGWYRQAPGKERELVADITRRGGTTYYADSVKGRFTISRDNAKNTVYLQMNSLKPEDTAVYYCATEYWYGIYGYDYWGQGTQVTVSS	high polyreactivity
QVQLVESGGGLVQAGGSLRLSCAASGFTFVKYAMGWYRQAPGKERELVAVISRRGGSTYYADSVKGRFTISRDNAKNTVYLQMNSLKPEDTAVYYFAAKVALPRTQEWEYGYWGQGTQVTVSS	high polyreactivity
QVQLVESGGGLVQAGGSLRLSCAASGFTFVPYAMGWYRLAPGKEREFVATISWSAGRTYYADSVKGRFTISRDNAKNTVYLQMNSLKPEDTAVYYCNTASYRGYDYWGQGTQVTVSS	high polyreactivity
QVQLVESGGGLVQAGGSLRLSCAASGFTFVPYAMGWYRQAPGKERELVAAISSTGGSTYYADSVKGRFTISRDNAKNTVYLQMNSLKPEDTAVYYCAAKITRRYYPGYLFDSWGQGTQVTVSS	high polyreactivity
QVQLVESGGGLVQAGGSLRLSCAASGFTFVPYDMGWYRQAPGKERELVAAITDSSGSTHYADSVKGRFTFSRDNAKNTVYLQMNSLKPEDTAVYYCAADDSSRTTYDYWGQGTQVTVSS	low polyreactivity
QVQLVESGGGLVQAGGSLRLSCAASGFTFVRNAMGWYRQAPGKERELVAAISYRGGSTYYADSVKGRFTISRDNAKNTVYLQMNSLKPEDTAVYYCAAEAGYSSRRYYWGQGTQVTVSS	high polyreactivity
QVQLVESGGGLVQAGGSLRLSCAASGFTFVRNAMGWYRQAPGNERELVAALSTSAGSTYYADSVKGRFTISRDNAKNTVYLQMNSLKPEDTAVYYSAASASRYFVLAASGGIRYYYWGQGTQVTVSS	high polyreactivity
QVQLVESGGGLVQAGGSLRLSCAASGFTFVRYAMGWYRQAPGKERELVAAISRSSGSTYYADSVKGRFTISRDNAKNTVYLQMNSLKPEDTAVYYCARRYGRYSGTYDYWGQGTQVTVSS	high polyreactivity
QVQLVESGGGLVQAGGSLRLSCAASGFTFVRYVMGWYRQAPGKERELVAAISRSGGSTHYADSVKGRFTISRDNAKYTVYLQMNSLKPEDTAVYYCAAASPRWPGQGDYWGEGTQVTVSS	high polyreactivity
QVQLVESGGGLVQAGGSLRLSCAASGFTFVSYAMGWYRQAPGKERELVAAISKRGGSTSYADSVKGRFTISRDNAKNTVYFQMNSLKPEDTAVYYCYNRSYAWSPHVDYWGQGTQVTVSS	high polyreactivity
QVQLVESGGGLVQAGGSLRLSCAASGFTFVSYAMGWYRQAPGKERELVAAISRSGGRTYYADSVKGRFTISRDNAKNTVYLQMNSLKPEDSAVYYCAKAYRPFYSRVQDYDYWGQGTQVTVSS	high polyreactivity
QVQLVESGGGLVQAGGSLRLSCAASGFTFVTYAMGWSSQAPGKERELVATISWGVGGSYYADSVKGRFTISRDNAKNTVYLPMNSLKPEDTAVYYCNARHTWHQTYDYWGQGTQVTVSS	low polyreactivity
QVQLVESGGGLVQAGGSLRLSCAASGFTFVWYAMGWYRQAPGKEREFVAAINRSGGSTYYADSVKGRFTISRDNAKNTVYLQMNSLKPEDTAVYYCAAESWRGWSEFYYWGQGTQVTVSS	high polyreactivity
QVQLVESGGGLVQAGGSLRLSCAASGFTFVYNAMGWYRQAPGKERELVAAISSSGGRTYYADSVKGRFTISRDNAKNTVYLQMNSLKPEDTAVYYCAVEYPVYYYVEYDYWGQGTQVTVSS	high polyreactivity
